Measured values as given in patent US20150065381A1.
“And” between values parts separate entries of the source, which are not always exact repeats. Equal entries are not always repeated.

Columns and labels:
[1] = biological target: HIV-1 envelope clone G-011.c05 (multiclade gp160 clone panel) (HIV-1); test: capture ELISA, plate 1, mAb 2.5 ug/ml
[2] = biological target: HIV-1 envelope of gp160 clone AG-010.c14 (HIV-1); test: capture ELISA, plate 1, mAb 2.5 ug/ml
[3] = biological target: HIV-1 envelope of gp160 clone B-Acute-010.c09 (HIV-1); test: capture ELISA, plate 1, mAb 2.5 ug/ml
[4] = biological target: HIV-1 envelope of gp160 clone B-Acute-009-c08 (HIV-1); test: capture ELISA, plate 1, mAb 2.5 ug/ml
[5] = biological target: HIV-1 envelope clone G-011.c02 (multiclade gp160 clone panel) (HIV-1); test: capture ELISA, plate 1, mAb 2.5 ug/ml
[6] = biological target: HIV-1 envelope clone BF-002.c05 (multiclade gp160 clone panel) (HIV-1); test: capture ELISA, plate 1, mAb 2.5 ug/ml
[7] = biological target: HIV-1 JRCSF envelope (HIV-1) (UniProt P20871); test: capture ELISA, plate 1, mAb 2.5 ug/ml
[8] = biological target: HIV-1 envelope clone F1-002.c11 (multiclade gp160 clone panel) (HIV-1); test: capture ELISA, plate 1, mAb 2.5 ug/ml
[9] = biological target: HIV-1 envelope clone F1-002.c16 (multiclade gp160 clone panel) (HIV-1); test: capture ELISA, plate 1, mAb 2.5 ug/ml
[10] = biological target: HIV-1 envelope of gp160 clone B-Acute-010.c08 (HIV-1); test: capture ELISA, plate 1, mAb 2.5 ug/ml
[11] = biological target: HIV-1 envelope of gp160 clone B-Chronic-014.c02 (HIV-1); test: capture ELISA, plate 1, mAb 2.5 ug/ml
[12] = biological target: HIV-1 16055 envelope (HIV-1); test: capture ELISA, plate 1, mAb 2.5 ug/ml
[13] = biological target: HIV-1 envelope of gp160 clone AG-010.c11 (HIV-1); test: capture ELISA, plate 1, mAb 2.5 ug/ml
[14] = biological target: HIV-1 envelope of gp160 clone B-Acute-008.c11 (HIV-1); test: capture ELISA, plate 1, mAb 2.5 ug/ml
[15] = biological target: HIV-1 JRFL envelope (HIV-1); test: capture ELISA, plate 1, mAb 2.5 ug/ml
[16] = biological target: HIV-1 envelope clone BF-002.c08 (multiclade gp160 clone panel) (HIV-1); test: capture ELISA, plate 1, mAb 2.5 ug/ml
[17] = biological target: HIV-1 envelope clone G-011.c05 (multiclade gp160 clone panel) (HIV-1); test: capture ELISA, plate 1, mAb 0.8 ug/ml
[18] = biological target: HIV-1 envelope of gp160 clone AG-010.c14 (HIV-1); test: capture ELISA, plate 1, mAb 0.8 ug/ml
[19] = biological target: HIV-1 envelope of gp160 clone B-Acute-010.c09 (HIV-1); test: capture ELISA, plate 1, mAb 0.8 ug/ml
[20] = biological target: HIV-1 envelope of gp160 clone B-Acute-009-c08 (HIV-1); test: capture ELISA, plate 1, mAb 0.8 ug/ml
[21] = biological target: HIV-1 envelope clone G-011.c02 (multiclade gp160 clone panel) (HIV-1); test: capture ELISA, plate 1, mAb 0.8 ug/ml
[22] = biological target: HIV-1 envelope clone BF-002.c05 (multiclade gp160 clone panel) (HIV-1); test: capture ELISA, plate 1, mAb 0.8 ug/ml
[23] = biological target: HIV-1 JRCSF envelope (HIV-1) (UniProt P20871); test: capture ELISA, plate 1, mAb 0.8 ug/ml
[24] = biological target: HIV-1 envelope clone F1-002.c11 (multiclade gp160 clone panel) (HIV-1); test: capture ELISA, plate 1, mAb 0.8 ug/ml
[25] = biological target: HIV-1 envelope clone F1-002.c16 (multiclade gp160 clone panel) (HIV-1); test: capture ELISA, plate 1, mAb 0.8 ug/ml
[26] = biological target: HIV-1 envelope of gp160 clone B-Acute-010.c08 (HIV-1); test: capture ELISA, plate 1, mAb 0.8 ug/ml
[27] = biological target: HIV-1 envelope of gp160 clone B-Chronic-014.c02 (HIV-1); test: capture ELISA, plate 1, mAb 0.8 ug/ml
[28] = biological target: HIV-1 16055 envelope (HIV-1); test: capture ELISA, plate 1, mAb 0.8 ug/ml
[29] = biological target: HIV-1 envelope of gp160 clone AG-010.c11 (HIV-1); test: capture ELISA, plate 1, mAb 0.8 ug/ml
[30] = biological target: HIV-1 envelope of gp160 clone B-Acute-008.c11 (HIV-1); test: capture ELISA, plate 1, mAb 0.8 ug/ml
[31] = biological target: HIV-1 envelope clone BF-002.c08 (multiclade gp160 clone panel) (HIV-1); test: capture ELISA, plate 1, mAb 0.8 ug/ml
[32] = biological target: HIV-1 envelope clone G-011.c02 (multiclade gp160 clone panel) (HIV-1); test: capture ELISA, plate 2, mAb 0.3 ug/ml
[33] = biological target: HIV-1 JRCSF envelope (HIV-1) (UniProt P20871); test: capture ELISA, plate 2, mAb 0.3 ug/ml
[34] = biological target: BG505 envelope (gp120 monomer released from lysed pseudovirus) (HIV-1); test: antigen capture ELISA, mAb 7.5 ug/ml, plate 1
[35] = biological target: aMLV envelope (from lysed pseudovirus); test: antigen capture ELISA, mAb 7.5 ug/ml, plate 1
[36] = biological target: BG505 envelope (gp120 monomer released from lysed pseudovirus) (HIV-1); test: antigen capture ELISA, mAb 0.8 ug/ml, plate 2
[37] = biological target: aMLV envelope (from lysed pseudovirus); test: antigen capture ELISA, mAb 0.8 ug/ml, plate 2

Substance | ELISA OD [1] | ELISA OD [2] | ELISA OD [3] | ELISA OD [4] | ELISA OD [5] | ELISA OD [7] | ELISA OD [10] | ELISA OD [11] | ELISA OD [13] | ELISA OD [14] | ELISA OD [17] | ELISA OD [18] | ELISA OD [19] | ELISA OD [20] | ELISA OD [21] | ELISA OD [23] | ELISA OD [26] | ELISA OD [27] | ELISA OD [29] | ELISA OD [30] | other results
PGT151 (antibody) | 0.073 OD | 0.164 OD | 0.06 OD | 0.076 OD | 0.067 OD | 0.087 OD and 0.063 OD | 0.243 OD | 0.206 OD | 0.062 OD | 0.152 OD | 0.071 OD | 0.102 OD | 0.055 OD | 0.066 OD | 0.061 OD | 0.058 OD and 0.056 OD | 0.124 OD | 0.148 OD | 0.057 OD | 0.174 OD | ELISA OD [6]: 0.148 OD; ELISA OD [8]: 0.063 OD; ELISA OD [9]: 0.081 OD; ELISA OD [12]: 0.091 OD and 0.061 OD; ELISA OD [15]: 0.078 OD and 0.06 OD; ELISA OD [16]: 0.062 OD; ELISA OD [22]: 0.117 OD; ELISA OD [24]: 0.065 OD; ELISA OD [25]: 0.068 OD; ELISA OD [28]: 0.056 OD and 0.061 OD; ELISA OD [31]: 0.05 OD; ELISA OD [32]: 0.116 OD; ELISA OD [33]: 0.069 OD and 0.065 OD; ELISA OD [34]: 0.094 OD; ELISA OD [35]: 0.098 OD and 0.075 OD; ELISA OD [36]: 0.054 OD; ELISA OD [37]: 0.054 OD and 0.078 OD
PG9 (antibody) | 0.308 OD | 0.988 OD | 0.133 OD | 0.095 OD | 0.068 OD | 0.356 OD and 0.338 OD | 0.313 OD | 1.79 OD | 0.759 OD | 0.281 OD | 0.172 OD | 0.67 OD | 0.08 OD | 0.076 OD | 0.064 OD | 0.24 OD and 0.235 OD | 0.161 OD | 1.22 OD | 0.506 OD | 0.168 OD | ELISA OD [12]: 0.364 OD and 0.308 OD; ELISA OD [15]: 0.068 OD and 0.077 OD; ELISA OD [28]: 0.313 OD and 0.242 OD; ELISA OD [32]: 0.052 OD; ELISA OD [33]: 0.113 OD and 0.131 OD; ELISA OD [34]: 0.428 OD; ELISA OD [35]: 0.084 OD and 0.072 OD; ELISA OD [36]: 0.261 OD; ELISA OD [37]: 0.056 OD and 0.051 OD
PGV04 (antibody) | 0.256 OD | 0.241 OD | 1.73 OD | 0.123 OD | 0.601 OD | 1.53 OD and 1.78 OD | 1.34 OD | 4 OD | 0.136 OD | 0.059 OD | 0.136 OD | 0.15 OD | 0.902 OD | 0.079 OD | 0.282 OD | 0.896 OD and 1.04 OD | 0.631 OD | 2.9 OD | 0.101 OD | 0.053 OD | ELISA OD [6]: 4 OD; ELISA OD [8]: 0.145 OD; ELISA OD [9]: 0.242 OD; ELISA OD [16]: 2.2 OD; ELISA OD [22]: 1.91 OD; ELISA OD [24]: 0.079 OD; ELISA OD [25]: 0.118 OD; ELISA OD [31]: 1.27 OD; ELISA OD [32]: 0.189 OD; ELISA OD [33]: 0.525 OD and 0.588 OD; ELISA OD [34]: 1.37 OD; ELISA OD [35]: 0.092 OD and 0.074 OD; ELISA OD [36]: 0.745 OD; ELISA OD [37]: 0.085 OD
PG16 (antibody) | 0.126 OD | 0.485 OD | 0.124 OD | 0.074 OD | 0.065 OD | 0.206 OD and 0.164 OD | 0.186 OD | 0.398 OD | 0.216 OD | 0.189 OD | 0.099 OD | 0.491 OD | 0.073 OD | 0.058 OD | 0.057 OD | 0.169 OD and 0.154 OD | 0.132 OD | 0.365 OD | 0.177 OD | 0.164 OD | ELISA OD [6]: 0.639 OD; ELISA OD [8]: 0.142 OD; ELISA OD [9]: 0.129 OD; ELISA OD [12]: 0.185 OD and 0.131 OD; ELISA OD [15]: 0.085 OD and 0.088 OD; ELISA OD [16]: 0.146 OD; ELISA OD [22]: 0.518 OD; ELISA OD [24]: 0.146 OD; ELISA OD [25]: 0.341 OD; ELISA OD [31]: 0.134 OD; ELISA OD [32]: 0.09 OD; ELISA OD [33]: 0.133 OD and 0.167 OD; ELISA OD [34]: 0.12 OD; ELISA OD [35]: 0.103 OD and 0.072 OD; ELISA OD [36]: 0.165 OD; ELISA OD [37]: 0.072 OD and 0.064 OD
PGT145 (antibody) | 0.087 OD | 0.065 OD | 0.068 OD | 0.078 OD | 0.068 OD | 0.071 OD and 0.061 OD | 0.277 OD | 0.064 OD | 0.06 OD | 0.101 OD | 0.08 OD | 0.054 OD | 0.06 OD | 0.062 OD | 0.062 OD | 0.058 OD and 0.056 OD | 0.114 OD | 0.083 OD | 0.054 OD | 0.078 OD | ELISA OD [6]: 0.22 OD; ELISA OD [8]: 0.089 OD; ELISA OD [9]: 0.316 OD; ELISA OD [12]: 0.115 OD and 0.06 OD; ELISA OD [15]: 0.06 OD; ELISA OD [16]: 0.066 OD; ELISA OD [22]: 0.169 OD; ELISA OD [24]: 0.067 OD; ELISA OD [25]: 0.269 OD; ELISA OD [28]: 0.065 OD and 0.059 OD; ELISA OD [31]: 0.054 OD; ELISA OD [32]: 0.104 OD; ELISA OD [33]: 0.067 OD and 0.115 OD; ELISA OD [34]: 0.104 OD; ELISA OD [35]: 0.098 OD and 0.082 OD; ELISA OD [36]: 0.066 OD; ELISA OD [37]: 0.062 OD
